From US20100280227A1 (Genentech, published 2010) come the findings set out here.

Numbering of substitutions follows the chain as printed.

The chains are these.
B1: chimeric 2.1 IgG (antibody, V domains shown)
VH: EVQLQESGPSLVKPSQTLSLTCSVTGDSITRGYWNWIRKFPGNKLEFMGYINYSGTTYYNPSLKSRISITRDTSKNQYYLQLNSVTTEDTATYYCATPHTYGAMDYWGQGTTLTVSA
VL: DIVLTQSPVSLAVSLGQRATISCRASESVDDYGISFMHWYQQKPGQPPKLLIYRASDLESGIPARFSGSGSGTDFTLTINPVETDDVAIYYCQQTSKDPWTFGGGT
notes: also called Ch 2.1 IgG; ch 2.1
B2: chimeric 11G9 IgG (antibody, V domains shown)
VH: DVQLQESGPSLVKPSQTLSLTCSVTGDSITSGYWNWIRKFPGNKLEYMGYISYSGSTYYNPSLKSRISITRDTSKNQFYLQLLSVTTEDTATYYCAGLDGLYWYFDVWGAGTLVTVSS
VL: DIVMTQTPLSLPVSLGDQASISCRSSQSLVHSNGNTYLHWYLQKPGQSPKLLIYKVSNRFSGVPDRFSGSGSGTDFTLKISRVEAEDLGVYFCSQSTHVPPFTFGSGT
notes: also called Ch 11G9 IgG
B3: V3-1h (antibody, human IgG1, V domains shown)
VH: EVQLVESGGGLVQPGGSLRLSCAASGFTISSNSIHWVRQAPGKGLEWVAWITPSDGNTDYADSVKGRFTISADTSKNTAYLQMNSLRAEDTAVYYCARRVCYNRLGVCAGGMDYWGQGTLVTVSS
VL: DIQMTQSPSSLSASVGDRVTITCRASQDVSTAVAWYQQKPGKAPKLLIYSASFLYSGVPSRFSGSGSGTDFTLTISSLQPEDFATYYCQQSRITPPTFGQGTKVEIKR
B4: V3-46s-9 Fab (Fab, V domains shown)
VH: B3 VH with N32S, I51V, T52L, D55V, N57F
VL: DIQMTQSPSSLSASVGDRVTITCRASEDISTAVAWYQQKPGKAPKLLIFAASYLYSGVPSRFSGSGSGTDFTLTISSLQPEDFATYYCQQSQISPPTFGQGTKVEIK
notes: soluble Fab in SPR; also called V46s-9
B5: chimeric 9.1 IgG (antibody, V domains shown)
VH: EVKLVESGGGLVQPGGSLRLSCAISGFTVTAYYMSWVRQPPGKALEWLGFIRDKANGYTTEYNPSVKGRFTISRDNSQSIFYLQMNTLRAEDSATYYCAQVRRALDYWGQGTTVTVSA
VL: DIVMSQSPSSLAVSVGEKVTMSCKSSQSLLYSSNQNNYLAWYQQKPGQSPKLLIYWASTRESGVPDRFTGSGSGTDFTLTISSVKAEDLAVYYCQQYYTYPYTFGGGT
notes: also called Ch 9.1 IgG; ch 9.1
B6: V3-46s IgG (antibody, V domains shown)
VH: B3 VH with N32S, I51V, T52L, D55V, N57F
VL: B3 VL with R92Q, T94S
notes: also called hV3-46S; HuV3-46s-IgG
B7: Hu2.1-30 IgG (antibody, V domains shown)
VH: EVQLVESGGGLVQPGGSLRLSCAASGDSITRGYWNWVRQAPGKGLEWVGYINYSGTTYYNPSLKSRFTISRDTSKNTFYLQMNSLRAEDTAVYYCANLNYYGAMDYWGQGTLVTVSS
VL: DIQMTQSPSSLSASVGDRVTITCRASESVDDYGISFMHWYQQKPGKAPKLLIYRASDLESGVPSRFSGSGSGTDFTLTISSLQPEDFATYYCQQTSKDPWTFGQGTKVEIKR
notes: humanized IgG; also called h2.1-30
B8: Hu2.1-46 IgG (antibody, V domains shown)
VH: B7 VH with L98S, Y100F
VL: B7 VL
notes: humanized IgG; also called h2.1-46
B9: Hu9.1-88 IgG (antibody, V domains shown)
VH: EVQLVESGGGLVQPGGSLRLSCAASGFPVTGSYVSWVRQAPGKGLEWVGFIRDKANGYTTEYNPSVKGRFTISRDTSKNTLYLQMNSLRAEDTAVYYCAQVRRALDYWGQGTLVTVSS
VL: DIQMTQSPSSLSASVGDRVTITCKSSQSLLYSSNQNNYLAWYQQKPGKAPKLLIYWASTRESGVPSRFSGSGSGTDFTLTISSLQPEDFATYYCQQYYTYPYTFGQGTKVEIKR
notes: humanized IgG; also called h9.1-88
B10: h9.1-70 IgG (antibody, V domains shown)
VH: B9 VH with G26D, F27S, V29R, T30S, S32Y, V34I, R74A, L81A
VL: B9 VL with T59I, E61D
B11: h9.1-73 IgG (antibody, V domains shown)
VH: B9 VH with F27L, V29M, T30A, S32F, V34T, R74A, L81A
VL: B9 VL with S58Q, T59H, R60L, E61D
B12: Hu2.1-94 IgG (antibody, V domains shown)
VH: B7 VH with F78L, N97T, L98S, N99H, Y100N, Y101T, A103E
VL: B7 VL
notes: humanized IgG; also called h2.1-94
B13: mV3-46 IgG (antibody, V domains shown)
VH: B3 VH with S31N, N32S, I51V, T52L, D55V, N57F
VL: B3 VL with R92Q, T94S
notes: IgG on chip
B14: mV3-46s IgG (antibody, V domains shown)
VH: B3 VH with N32S, I51V, T52L, D55V, N57F
VL: B3 VL with R92Q, T94S
notes: IgG on chip
B15: V3-46s-42 Fab (Fab, V domains shown)
VH: B3 VH with N32S, I51V, T52L, D55V, N57F
VL: B4 VL with F49Y, Y53F
notes: soluble Fab in SPR; also called V46s-42

The first test deals with T1, human BR3 expressed on cells (human, UniProt Q96RJ3 1-184).
T1 construct: whole, on cells; also called BR3 on BJAB cells; cell surface BR3
Put plainly: BJAB cells, competition with biotin-BAFF.
Description: (§1) The diluted samples were added to the pelleted BJAB cells in 96 well plates as described above. After 45 min incubation on ice, the cells were washed twice with 200 μl cold assay buffer, and streptavidin-HRP (AMDEX, Amersham Biosciences, Piscataway, N.J.) diluted 1/5,000 in assay buffer was added (100 μl/well). The plates were incubated for a final 45 min on ice. After washing twice with cold assay buffer, color was developed using TMB, the reaction was stopped with H₃PO₄, and the plates were read as described above.
A word on the IC50: it is the concentration that gives 50% inhibition. Higher therefore signals weaker potency. For the molecule B1, the IC50 was 0.23 nM.
B2: the IC50 was 0.45 nM.
For B3, the IC50 was found to be 5.97 nM.

The target in another test is T2, human BR3 extracellular domain (human, UniProt Q96RJ3 1-61).
T2 construct: biotinylated where used as tracer; also called hBR3-ECD; BR3-ECD
Put plainly: phage competition ELISA.
Regarding B4, the IC50 was 0.053 nM.

Another test concerns the target T3, mouse BR3 extracellular domain (mouse, UniProt Q9D8D0 1-64).
T3 construct: also called mBR3-ECD; mBR-ECD
T3 sequence: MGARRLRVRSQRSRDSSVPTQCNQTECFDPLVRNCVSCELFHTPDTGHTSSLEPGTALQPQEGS
Put plainly: phage competition ELISA. A general note: An ELISA detects its analyte on a solid surface through an enzyme-linked reagent.
The molecule B4 had a concentration for half-maximal inhibition (IC50) of 0.182 nM.

Another test deals with T1, human BR3 expressed on cells. Put plainly: BJAB cells, direct binding.
Description: Direct and competitive binding assays were performed as follows. For the direct binding assay, IgG antibody samples were serially diluted in cold assay buffer to concentrations ranging between 300-0.02 nM. Samples (100 μl) were added to the pelleted cells, and the plates were incubated for 45 min on ice. An additional 100 μl assay buffer was then added to each well, and the plates were centrifuged at 1200 rpm for 5 min at 4° C. After carefully aspirating the supernatant, the cells were washed two additional times with 200 μl assay buffer. An anti-mouse IgG Fc-HRP or goat anti-human IgG Fc-HRP, as appropriate, was diluted 1/10,000 in cold assay buffer was added (100 μl/well, Jackson ImmunoResearch, West Grove, Pa.), and the plates were incubated on ice for 45 min. Following two washes with 200 μl cold assay buffer, tetramethyl benzidine (TMB, Kirkegaard & Perry Laboratories, Gaithersburg, Md.) was added, and color was allowed to develop for 10 min. One hundred microliters 1 M H₃PO₄ was added to stop the reaction. The plates were then read on a microplate reader at 450 nm with a 620 nm reference. In the direct binding assay, the indicated concentrations of mAbs were added to BJAB cells and bound mAb was detected.
A word on the EC50: it is the concentration that produces a half-maximal response. The low end stands for an effect from little substance, the high end for a need for much substance. The molecule B5 had an EC50 of 0.36 nM.
As to B1, a half-maximal effect (EC50) was put at 0.14 nM.
On the same count and under the same terms, the same measure for B6: 1.8 nM; for B7: 0.11 nM; for B8: 0.11 nM.
Consider B9, for which the 50% effective concentration (EC50) was determined as 0.43 nM.
As to B10, a half-maximal effect (EC50) was put at 0.33 nM.
As to B11, it took 0.79 nM to reach a half-maximal effect (EC50).

The target is the same in the next test. Put plainly: BJAB cells, competition with biotin-BAFF. This is another data set of the same source.
Description: as §1
The molecule B1 displayed an IC50 of 0.2 nM.
On to B6, for which the 50% inhibitory concentration (IC50) was found to be 1.9 nM.
As to B7, the IC50 was found to be 0.17 nM.
Turning to B8, the 50% inhibitory concentration (IC50) is 0.19 nM.
B12 displayed a concentration for half-maximal inhibition (IC50) of 5.1 nM.
B9: the IC50 turned out to be 0.6 nM.
B10 came in with an IC50 of 0.82 nM.
B11 gave an IC50 of 1.78 nM.

A further test addresses T2, human BR3 extracellular domain. Put plainly: SPR, IgG on chip, BR3 ECD in solution. In general terms: SPR reads the build-up and loss of mass on a sensor chip optically.
For orientation: Kd means the constant that tells how readily two partners part at equilibrium. Low values mean tighter binding, high ones weaker binding. The term koff denotes a measure of how fast the partners let go of each other. Read a high koff as fast dissociation. For orientation: kon means the rate constant with which the complex forms. The low end stands for slow association, the high end for fast association. Take B13: the equilibrium dissociation constant (Kd) turned out to be 0.24 nM, the koff amounted to 7.31e-05 s⁻¹ and the kon was 300000 M⁻¹ s⁻¹.
For B14, in that order: 0.02 nM, 3.18e-05 s⁻¹ and 1.57e+06 M⁻¹ s⁻¹.
As to B7, the equilibrium dissociation constant (Kd) is 0.02 nM, the off-rate constant (koff) worked out at 7.6e-05 s⁻¹ and the kon is 3.57e+06 M⁻¹ s⁻¹.
B8 registered a Kd of 0.193 nM, an off-rate (koff) of 0.000432 s⁻¹ and an on-rate (kon) of 2.24e+06 M⁻¹ s⁻¹.
Turning to B9, the Kd came to 0.911 nM, the koff was 0.000926 s⁻¹ and the kon was found to be 1.02e+06 M⁻¹ s⁻¹.

The target of the next test is T3, mouse BR3 extracellular domain. Put plainly: SPR, IgG on chip, BR3 ECD in solution.
Molecule B13 had a dissociation constant Kd of 1.17 nM, a koff of 0.00014 s⁻¹ and an on-rate (kon) of 119000 M⁻¹ s⁻¹.
For B14, in that order: 0.32 nM, 9.51e-05 s⁻¹ and 298000 M⁻¹ s⁻¹.

In the next test the target is T2, human BR3 extracellular domain. Put plainly: SPR, BR3 ECD on chip.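 Note: Anti-BR3 antibodies passed over the chip at high flow in PBS with 0.05% polysorbate 20, on and off rates fitted together globally to a 1:1 binding model.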
Turning to B1, the Kd was 0.04 nM, the off-rate (koff) worked out at 6.8e-05 s⁻¹ and the kon came out at 1.68e+06 M⁻¹ s⁻¹.
In the case of B2, binding was characterised by a dissociation constant (Kd) of 0.34 nM, the koff amounted to 0.000549 s⁻¹ and the on-rate constant (kon) turned out to be 1.64e+06 M⁻¹ s⁻¹.
For B7, the Kd worked out at 0.017 nM, the dissociation rate constant (koff) is 4e-05 s⁻¹ and the association rate constant (kon) was 2.41e+06 M⁻¹ s⁻¹.
As to B8, binding was put at a Kd of 0.02 nM, the koff is 4.5e-05 s⁻¹ and the on-rate constant (kon) is 2.2e+06 M⁻¹ s⁻¹.
The molecule B12 returned a Kd of 0.037 nM, a koff of 6.6e-05 s⁻¹ and a kon of 1.77e+06 M⁻¹ s⁻¹.
In turn, B9 displayed a Kd of 0.025 nM, a dissociation rate constant (koff) of 4.9e-05 s⁻¹ and a kon of 1.94e+06 M⁻¹ s⁻¹.

The next test has the same target. Put plainly: SPR BIAcore-3000, Fab.
Description: (§2) Surface plasmon resonance assays on a BIAcore™-3000 were used to determine the affinity of the Fabs.
For B4, the Kd turned out to be 0.09 nM, the dissociation rate constant (koff) was found to be 1.6e-05 s⁻¹ and the on-rate constant (kon) was 160000 M⁻¹ s⁻¹.
For B15, in that order: 0.026 nM, 1.4e-05 s⁻¹ and 617000 M⁻¹ s⁻¹.

The target of a further test is T3, mouse BR3 extracellular domain. Put plainly: SPR BIAcore-3000, Fab.
Description: as §2
Molecule B4 showed a dissociation constant Kd of 0.32 nM, a dissociation rate constant (koff) of 0.00015 s⁻¹ and a kon of 470000 M⁻¹ s⁻¹.
Taken in the same sequence, the figures for B15 were 0.39 nM, 0.00029 s⁻¹ and 740000 M⁻¹ s⁻¹.

Another test deals with T4, variant human BR3-Fc fusion.
T4 construct: produced in CHO cells; also called vBR3-Fc; vhBR3-Fc
Description: SPR, vBR3-Fc on chip.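 Note: Anti-BR3 antibodies passed over chip-bound BR3-Fc in PBS with 0.05% polysorbate 20, on and off rates fitted together globally to a 1:1 binding model.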
Description: After coupling, unoccupied sites on the chip were blocked by injecting 20 μl of 1M ethanolamine, pH 8.5. The running buffer was PBS containing 0.05% polysorbate 20. […] The binding surface was regenerated by injecting 20-30 μl of 10 mM glycine.HCl (pH 1.5). […] Data were analyzed using a 1:1 binding model using global fitting. The association and dissociation rate constants were fitted simultaneously (BIAevaluation software).
A high flow rate was used in order to minimize mass transport effects.
B5 displayed an equilibrium dissociation constant (Kd) of 0.17 nM.
As to B1, binding was put at a Kd of 0.04 nM, the koff is 3.8e-05 s⁻¹ and the kon is 980000 M⁻¹ s⁻¹.
The molecule B2 returned a dissociation constant Kd of 2.78 nM, a dissociation rate constant (koff) of 0.00218 s⁻¹ and a kon of 780000 M⁻¹ s⁻¹.
Turning to B8, binding was put at a Kd of 0.041 nM, the off-rate (koff) was determined as 3.96e-05 s⁻¹ and the kon stood at 978000 M⁻¹ s⁻¹.
For B12, in that order: 0.253 nM, 0.000121 s⁻¹ and 477000 M⁻¹ s⁻¹.
B9 yielded a Kd of 0.2 nM, a koff of 0.000262 s⁻¹ and a kon of 1.3e+06 M⁻¹ s⁻¹.
